Results taken from the supplement of paper PMC9233669.
This sample holds only a part of the variants without activity.

What was measured:
biotinyl-Met-oxazolone = experiment: self-aminoacylation, catalytic enhancement (BMO) (fold over background); higher = more active; k-Seq, kA / k0A0; sequences stand for … in GGGAAUGGAUCCACAUCUACGAAUUC…UUCACUGCAGACUUGACGAAGCUG
Method in brief: (§1)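 Mutagenized RNA pools (0.43 μM; 21-nt variable region) were treated with 2–1250 μM of each biotinyl-aminoacyl-oxazolone. Conditions were 50 μL HEPES/NaCl/KCl/MgCl2/CaCl2 buffer, 5% acetonitrile, pH 6.9–7.0, room temperature, 90 minutes. Catalytic enhancement, the median kA relative to the uncatalyzed rate, was derived from streptavidin capture, qPCR and Illumina sequencing.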

biotinyl-Leu-oxazolone = experiment: self-aminoacylation, catalytic enhancement (BLO) (fold over background); higher = more active; k-Seq, kA / k0A0; sequences stand for … in GGGAAUGGAUCCACAUCUACGAAUUC…UUCACUGCAGACUUGACGAAGCUG
Method in brief: as §1

biotinyl-Val-oxazolone = experiment: self-aminoacylation, catalytic enhancement (BVO) (fold over background); higher = more active; k-Seq, kA / k0A0; sequences stand for … in GGGAAUGGAUCCACAUCUACGAAUUC…UUCACUGCAGACUUGACGAAGCUG
Method in brief: as §1

biotinyl-Trp-oxazolone = experiment: self-aminoacylation, catalytic enhancement (BWO) (fold over background); higher = more active; k-Seq, kA / k0A0; sequences stand for … in GGGAAUGGAUCCACAUCUACGAAUUC…UUCACUGCAGACUUGACGAAGCUG
Method in brief: as §1

biotinyl-Phe-oxazolone = experiment: self-aminoacylation, catalytic enhancement (BFO) (fold over background); higher = more active; k-Seq, kA / k0A0; sequences stand for … in GGGAAUGGAUCCACAUCUACGAAUUC…UUCACUGCAGACUUGACGAAGCUG
Method in brief: as §1

biotinyl-Ile-oxazolone = experiment: self-aminoacylation, catalytic enhancement (BIO) (fold over background); higher = more active; k-Seq, kA / k0A0; sequences stand for … in GGGAAUGGAUCCACAUCUACGAAUUC…UUCACUGCAGACUUGACGAAGCUG
Method in brief: as §1

| Sequence | self-aminoacylation (biotinyl-Met-oxazolone) | self-aminoacylation (biotinyl-Leu-oxazolone) | self-aminoacylation (biotinyl-Val-oxazolone) | self-aminoacylation (biotinyl-Trp-oxazolone) | self-aminoacylation (biotinyl-Phe-oxazolone) | self-aminoacylation (biotinyl-Ile-oxazolone) |
| --- | --- | --- | --- | --- | --- | --- |
| AUUACCCUGAUCAUCGAGGGA [Fam2.1 aminoacylation ribozyme variant] | 1.02 | 1.87 | 1.21 | 2.33 | 0.999 | 1.09 |
| AUUACCCUGCGCAUCGAGUGA [Fam2.1 aminoacylation ribozyme variant] | 5.86 | 5.76 | 2.56 | 6.75 | 20.5 | 2.03 |
| AUUACCCUGCUCAACGAGUGA [Fam2.1 aminoacylation ribozyme variant] | 5.64 | 5.59 | 3.25 | 6.69 | 24.7 | 2.33 |
| AUUACCCUGCUCACCGAGUGA [Fam2.1 aminoacylation ribozyme variant] | 5.34 | 6.12 | 3.35 | 6.29 | 39 | 2.76 |
| AUUACCCUGCUCAUCGACUGA [Fam2.1 aminoacylation ribozyme variant] | 0.687 | 0.475 | 0.82 | 0.534 | 0.34 | 0.856 |
| AUUACCCUGCUCAUCGAGAGA [Fam2.1 aminoacylation ribozyme variant] | 0.805 | 0.702 | 0.975 | 0.698 | 0.77 | 0.834 |
| AUUACCCUGCUCAUCGAGUGU [Fam2.1 aminoacylation ribozyme variant] | 1 | 0.916 | 0.78 | 1.36 | 1.08 | 0.991 |
| AUUACCCUGGACAUAGAGUGA [Fam2.1 aminoacylation ribozyme variant] | 15.5 | 15 | 6.12 | 15.6 | 100 | 6.45 |
| AUUACCCUGGACAUCGAGCGA [Fam2.1 aminoacylation ribozyme variant] | 1.45 | 1.26 | 1.07 | 1.34 | 1.24 | 1.24 |
| AUUACCCUGGACAUCGAGUGU [Fam2.1 aminoacylation ribozyme variant] | 3.35 | 3.35 | 2.66 | 4.38 | 5.95 | 1.51 |
| AUUACCCUGGCCACCGAGUGA [Fam2.1 aminoacylation ribozyme variant] | 4.99 | 5.59 | 3.34 | 3.89 | 35.6 | 2.92 |
| AUUACCCUGGCCAUAGAGUGA [Fam2.1 aminoacylation ribozyme variant] | 4.15 | 4.73 | 2.51 | 6.32 | 5.34 | 2.6 |
| AUUACCCUGGCCAUCAAGUGA [Fam2.1 aminoacylation ribozyme variant] | 1.07 | 0.968 | 1.01 | 1.67 | 1.1 | 0.983 |
| AUUACCCUGGCCAUCGAGUGA [Fam2.1 aminoacylation ribozyme variant] | 3.27 | 3.27 | 2.24 | 3.94 | 11.7 | 2.05 |
| AUUACCCUGGCCAUCGAGUGU [Fam2.1 aminoacylation ribozyme variant] | 3.06 | 2.04 | 1.93 | 2.51 | 2.1 | 1.42 |
| AUUACCCUGGCCAUCGAGUUA [Fam2.1 aminoacylation ribozyme variant] | 1.26 | 1.28 | 1.12 | 0.729 | 0.675 | 1.38 |
| AUUACCCUGGCUAUCGAGUGA [Fam2.1 aminoacylation ribozyme variant] | 2.14 | 2.35 | 1.82 | 2.49 | 4.17 | 1.54 |
| AUUACCCUGGGAAUCGAGUGA [Fam2.1 aminoacylation ribozyme variant] | 5.72 | 5.93 | 3.29 | 4.59 | 26.8 | 2.78 |
| AUUACCCUGGGCAUCGGGUGA [Fam2.1 aminoacylation ribozyme variant] | 10.4 | 11.5 | 6.68 | 10.8 | 65.7 | 5.62 |
| AUUACCCUGGGCAUUGAGUGA [Fam2.1 aminoacylation ribozyme variant] | 9.32 | 11.3 | 4.23 | 11.9 | 58.7 | 4.38 |
| AUUACCCUGGGCGUCGAGUGA [Fam2.1 aminoacylation ribozyme variant] | 1.73 | 1.3 | 1.44 | 1.04 | 1.06 | 1.04 |
| AUUACCCUGGGUAUCGAGUGA [Fam2.1 aminoacylation ribozyme variant] | 9.85 | 10.9 | 4.62 | 11.2 | 57.8 | 4.51 |
| AUUACCCUGGUAAGCGAGUGA [Fam2.1 aminoacylation ribozyme variant] | 5.79 | 4.55 | 3.21 | 6.48 | 42.1 | 2.82 |
| AUUACCCUGGUAAUAGAGUGA [Fam2.1 aminoacylation ribozyme variant] | 16.2 | 16.1 | 6.61 | 17.9 | 125 | 6.19 |
| AUUACCCUGGUAAUCGAGUCA [Fam2.1 aminoacylation ribozyme variant] | 0.902 | 0.783 | 0.838 | 0.473 | 0.569 | 0.825 |
